Data on five molecules can be found in US7700329B2, “Methods for making simvastatin and intermediates” (priority 2003, dated 2010).

For series [1] the following is noted: pH 8.
A short description of series [2]: physchem. Conditions: pH 9.5.
The nature of series [3]: Enzyme screen for hydrolysis of lovastatin or lovastatin acid. The conditions noted are these: 2.5 mM substrate, 100 mM phosphate buffer/co-solvent pH 7 to 8, 30° C., 48 h; confirmed at 1 mM. The class given is biochemical. The protocol:
(§1) Any method for screening for enzymes for use in the methods of the invention, e.g., enzymes for the hydrolysis of lovastatin, lovastatin acid, 4-acetyl simvastatin or simvastatin, can be used, and, these methods are well known in the art. For example, in one exemplary set of screen conditions used to determine an enzyme(s) to be used in a method of the invention comprises use of 2.5 mM substrate, 100 mM phosphate buffer/co-solvent pH 7 to pH 8, 30° C., 48 h, with the following composition: (i) lovastatin or simvastatin in MTBE/buffer, (ii) lovastatin or simvastatin in toluene/buffer, (iii) lovastatin acid or simvastatin acid in 10% methanol/buffer. Screen results were confirmed at 1 mM substrate. […] SEQ ID NO:4 and SEQ ID NO:2 were further evaluated at 25, 50 and 100 mM lovastatin acid in 10% MeOH/buffer, pH 9, the more soluble lovastatin acid being used as substrate for convenience.

A short description of series [4]: Heat pre-treatment of lovastatin esterase, then lovastatin hydrolysis. The class given is biochemical. Conditions: 60° C. for 30 min, centrifuged, supernatant used. From the text:
Heat treatment has often been used as a convenient method to purify crude enzyme preparations when there is differential thermal stability between the desired enzyme and other contaminating proteins.

The nature of series [5]: Comparison of genomic clones for hydrolysis of lovastatin acid under standard conditions. The class given is biochemical. The conditions noted are these: same total protein concentration or same activity normalized against MUB. From the text:
Genomic clones comprising sequences encoding enzymes having sequences as set forth in SEQ ID NO:4, SEQ ID NO:2, SEQ ID NO:6 (e.g., encoded by exemplary SEQ ID NO:3, SEQ ID NO:1, and SEQ ID NO:5, respectively), were compared for the hydrolysis of lovastatin acid under standard conditions (the same total protein concentration, or the same enzyme activity normalized against the fluorescent substrate, methylumbelliferyl butyrate (MUB)).

The nature of series [6]: Enzyme screen for hydrolysis of simvastatin. It counts as biochemical. The conditions noted are these: 2.5 mM substrate, 100 mM phosphate buffer/co-solvent pH 7 to 8, 30° C., 48 h; confirmed at 1 mM. On the procedure: as §1
The nature of series [7]: Large-scale hydrolysis of lovastatin, specific activity of esterase. It counts as biochemical. The conditions noted are these: 100 g scale, 0.5 M lovastatin. The protocol:
The in situ hydrolysis of lovastatin with SEQ ID NO:4 was optimized such that insignificant amounts of NaCl generated: 0.85 g lovastatin in MeOH and equimolar NaOH added. Clarified lysate of E. coli containing SEQ ID NO:4 was added to lovastatin acid. […] See FIG. 27 for an illustration summary of the results.
The results of Response Surface Analysis (RSA) can be applied to large-scale hydrolysis of lovastatin, e.g., using a protocol as illustrated in FIG. 28: • Reaction performed successfully on 100 g scale (0.5 M); • 97.5% conversion in 27 h; • Productivity: x g/g esterase/h; • Specific activity: 0.084 μmol/mg esterase/min.

≈ marks a conversion by molar mass, not a printed value.

`CCC(C)(C)C(=O)O[C@H]1C[C@@H](C)C=C2C=C[C@H](C)[C@H](CC[C@@H]3C[C@@H](OC(C)=O)CC(=O)O3)[C@H]21` [4-acetyl simvastatin] returned an elimination in series [1] of 13%. As to `C[C@H]1C=C2C=C[C@H](C)[C@H](CC[C@@H](O)C[C@@H](O)CC(=O)O)C2[C@@H](O)C1` (stereo partly drawn) [Triol acid], in series [2], the solubility (usually how much of the substance goes into solution per volume) was approximately 200 mM (≈ 67.7 mg/mL).

B1: SEQ ID NO:2: feruloyl esterase encoded by SEQ ID NO:1 (protein)
chain: MSLCVIRFIAGTLVLVASVESAVAQQACADLMGLELPYTTITSAAVATEGPIPQPAIFGSTDPIVAPERCEVRAVTRPTKDSEIRIELWLPLSGWNGKYLQIGSGGWAGSINRTGLIGPLQRGYAVAATDNGHISEGLVPDASWAIGHPQKLIDFGYRAVHETSVQAKAILRAYFGRGQDLSYFSGCSNGGREALMEAQRYPEDFEGIIAGAPANNWSRLFTGFVWNERALADDPIPPAKLTAIQAAAIAACDTLDGVEDGLIENPRACSFDPRSMVCTADDASDCLTEGQVATLHRIYSGPTNPRTGERIFPGYPMGTEAVPGGWVPWIVSASSEVPSIQASFGNSYYGHAVFEQSNWDFRTLDFDQDVAFGDAKAGPVLNATNPDLRSFRANGGKLIQYHGWGDAAITAFSSIDYYENVRAFLDRFPDPRSENTDIDGFYRLFLVPGMGHCSGGIGPSSFGNGFRSARTDAEHDLLSALEAWVERDTAPERLIGTGTAVGDPTATLTRPLCPYPRTARYLGSGNSNDAANFECALPAGVQ
modifications: Unkown; Soil sample
With B1, in series [3], the “activity for the hydrolysis of lovastatin or lovastatin acid” value was “active”.

B2: SEQ ID NO:4: novel lovastatin esterase, family VII esterase with SXXK motif, encoded by SEQ ID NO:3 (protein)
chain: MEIHGTCDPKFHLVRQEFERNLRERGEVGASVCVTLHGETVVDLWGGMARADTQTPWTAETVSIVFSSTKGATALCAHMLASRGQLDLDAPVATYWPEFAQAGKARIPVKMLLNHQAGLPAVRTPLPQGAYADWELMVNTLAKEEPFWEPGTRNGYHALTMGWLVGEVVRRVSGKSLGTFFQEEIARPLGLDFWIGLPAEQEARVAPMIAAEPDPQSLFFQEVAKPGALQSLVLLNSGGYMGAQPEYDSRAAHAAEIGAAGGITNARGLAGMYAPLACGGKLKGVELVSPDMLARMSRVASATGRDAVLMMPTRFALGFMKSMDNRREPAGVQDSALFGEEAFGHVGAGGSFGFADPKAGMSFGYTMNRMGLGAGLNPRGQSLVDATYRSLGYQSDASGAWT
modifications: Unkown; Soil sample
For B2, in series [4], the “activity of heat pre-treated versus untreated enzyme” value is “no difference in activity”. Also, the “activity for hydrolysis of lovastatin acid compared among genomic clones” value in series [5] was “best activity”. Also, in series [6], the “activity for the hydrolysis of simvastatin” value is “showed activity”. Also, the “activity for the hydrolysis of lovastatin or lovastatin acid” value in series [3] is “active”. For the same molecule, in series [7], the Specific activity was 0.084 μmol/mg esterase/min.

B3: SEQ ID NO:6: feruloyl esterase encoded by SEQ ID NO:5 (protein)
chain: MRSAARISVAAVAFLCLLLTTRVSAQIVPAMECADLANQQLPNTTITSAQTVTTGSLTPPGSTNPITDLPPFCRVTGAIAPTSESHILFEVWLPLDKWNGKFAGVGNGGWAGIISFGALGSQLKRGYATASTNTGHEAAPGMNAARFAFEKPEQLIDFAYRSQHETALKAKALVQAFYGKPPEHSYFIGCSSGGYQGLMEAQRFPADYDGIVAGMPANNWTRLMAGDLDAILAVSVDPASHLPVSALGLLYRSVLAACDGIDGVVDGVLEDPRRCRFDPAVLMCKADQNPDGCLTPAQVEAARRIYGGLKDPKTGAQLYPGLAPGSEPFWPHRNPANPFPIPIAHYKWLVFADPNWDWRTFKFTDPADYQAFLNAEATYAPTLNATNPDLREFSRRGGRLIQYHGWNDQLIAPQNSIDYYESVLSFFGSGKQDRAQTVREVQSFYRLFMAPGMAHCGGGTGPNSFDMLDALEKWVEGGIAPERVLATRSINGVVDRLRPLCPYPQVAVYKGHGDTNDAANFVCRD
modifications: Unkown; Soil sample
For B3, the “activity for the hydrolysis of lovastatin or lovastatin acid” value in series [3] is on record as “active”.
